Data: patent US20240343803A1 (SHANDONG SIMCERE BIOPHARMACEUTICAL, published 2024)
Where a chain is given by its changes, count along the chain named.

T1: human PVRIG on FlpinCHO-PVRIG cells (human, UniProt Q6DKI7 41-326)
T1 construct: whole, on cells
T1 sequence (looked up): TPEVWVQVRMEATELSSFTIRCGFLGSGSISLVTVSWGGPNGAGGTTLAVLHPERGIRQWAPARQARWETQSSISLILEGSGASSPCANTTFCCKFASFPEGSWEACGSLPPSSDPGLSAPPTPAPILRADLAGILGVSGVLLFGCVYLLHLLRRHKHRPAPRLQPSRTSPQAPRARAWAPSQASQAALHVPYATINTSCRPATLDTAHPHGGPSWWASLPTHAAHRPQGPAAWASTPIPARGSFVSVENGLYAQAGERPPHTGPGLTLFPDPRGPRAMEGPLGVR

T2: cynomolgus monkey PVRIG (Novoprotein, Cat NO. C09B) (cynomolgus monkey, UniProt A0A2K5WVV8 41-171)
T2 construct: also called cynomolgus monkey PVRIG protein
T2 sequence: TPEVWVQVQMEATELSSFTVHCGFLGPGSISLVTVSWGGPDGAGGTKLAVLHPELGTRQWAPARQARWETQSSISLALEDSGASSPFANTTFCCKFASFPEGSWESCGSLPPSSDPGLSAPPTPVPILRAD

T3: human PVRIG-his (AcroBiosystems, Cat NO. PVG-H52H4) (human, UniProt Q6DKI7 41-171, limits assumed)
T3 construct: also called human PVRIG protein
T3 sequence (looked up): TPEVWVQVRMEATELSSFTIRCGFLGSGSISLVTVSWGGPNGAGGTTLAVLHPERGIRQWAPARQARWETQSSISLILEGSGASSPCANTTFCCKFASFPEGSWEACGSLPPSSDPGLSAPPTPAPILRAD

B1: PVRIG-A50 (Fc fusion)
chain: EVQLVESGGGLVQPGGSLRLSCAASGFTFSYYDMSWVRQAPGKGLEWVSTINSNGGRTSYVDSVKGRFTISRDNTKNTLYLQMNSLKPEDTAVYYCVEGDPHNFGLENLSLRDFGSWGQGTQVTVSS
notes: heavy chain antibody VHH-hinge-CH2-CH3, human IgG1 constant part; also called PVRIG-50; not shown: human IgG1 hinge-CH2-CH3
B2: PVRIG-A50-H1e (Fc fusion)
chain: B1 chain with G55A, T75S, K87R, P88A, N108S, Q122M
notes: humanized variant of PVRIG-A50; also called VH1e; not shown: constant part not restated for the humanized forms; parents are VHH-hinge-CH2-CH3 of human IgG1; detected by anti-human
B3: PVRIG-A50-H1b (Fc fusion)
chain: B1 chain with N54D, T75S, K87R, P88A, N108S, Q122M
notes: humanized variant of PVRIG-A50; also called A50.VH1b; not shown: constant part not restated for the humanized forms; parents are VHH-hinge-CH2-CH3 of human IgG1; detected by anti-human
B4: PVRIG-A50-H1c (Fc fusion)
chain: B1 chain with N54D, T75S, K87R, P88A, S110A, Q122M
notes: humanized variant of PVRIG-A50; also called A50.VH1c; not shown: constant part not restated for the humanized forms; parents are VHH-hinge-CH2-CH3 of human IgG1; detected by anti-human
B5: PVRIG-A50-H2a (Fc fusion)
chain: B1 chain with G55A, K87R, P88A, N108S, Q122M
notes: humanized variant of PVRIG-A50; also called A50.VH2a; not shown: constant part not restated for the humanized forms; parents are VHH-hinge-CH2-CH3 of human IgG1; detected by anti-human
B6: PVRIG-A50-H1a (Fc fusion)
chain: B1 chain with N54D, T75S, K87R, P88A, Q122M
notes: humanized variant of PVRIG-A50; also called A50.VH1a; not shown: constant part not restated for the humanized forms; parents are VHH-hinge-CH2-CH3 of human IgG1; detected by anti-human
B7: PVRIG-A118 (Fc fusion)
chain: QVQLVESGGGLVQAGGSLRLSCAASETYFDLYVMGWYRQAPGKDRELVATITYTGSIKIVDSVKDRFTISRGDAKNTVSLQMSSLKPEDTAVYFCNADPSGLGRKVYWGQGTQVTVSS
notes: heavy chain antibody VHH-hinge-CH2-CH3, human IgG1 constant part; not shown: human IgG1 hinge-CH2-CH3
B8: PVRIG-A105 (Fc fusion)
chain: EVQLVESGGGLVQAGGSLRLSCAASGRTFDRHTMTWFRQAPGKEREFVATASRIPGDTYYSHSVKGRFTISRDNAKNTVYLQLNNLKPEDTAVYYCAATSAYCSEVDCYEKGSWYDNWGQGIQVTVSS
notes: as for B7
B9: PVRIG-A105-H4 (Fc fusion)
chain: B8 chain with A14P, T78S, V79L, L83M, N85S, K87R, P88A, I122T, Q123M
notes: humanized variant of PVRIG-A105; also called A105.VH4; not shown: constant part not restated for the humanized forms; parents are VHH-hinge-CH2-CH3 of human IgG1; detected by anti-human
B10: PVRIG-A105-H1 (Fc fusion)
chain: EVQLVESGGGLVQPGGSLRLSCAASGRTFDRHTMSWFRQAPGKEREFVATASRIPGDTYYVDSVKGRFTISRDNAKNSLYLQMNSLRAEDTAVYYCAATSAYCSEVDCYEKGSWYDNWGQGTMVTVSS
notes: humanized variant of PVRIG-A105; also called A105.VH1; not shown: constant part not restated for the humanized forms; parents are VHH-hinge-CH2-CH3 of human IgG1; detected by anti-human
B11: PVRIG-A105-H3 (Fc fusion)
chain: B10 chain with S35T, L79V
notes: humanized variant of PVRIG-A105; also called A105.VH3; not shown: constant part not restated for the humanized forms; parents are VHH-hinge-CH2-CH3 of human IgG1; detected by anti-human

How the values were obtained:
[1] = molecular target: T1, human PVRIG on FlpinCHO-PVRIG cells; assay: FACS, FlpinCHO-PVRIG cells
Description: The Ham's F12 (Gibico, 21127-022) complete medium containing 10% FBS was then added to terminate the digestion and acquire cell suspension. After counting with a cell counter (Beckman Coulter, Vi-CELL), an appropriate amount of cell suspension was centrifuged at 350×g to remove the supernatant, washed twice with PBS, stained with Zombie violet (Biolegend, 423114) and incubated at room temperature for 20 minutes. After incubation, the cells were added with staining buffer (2% FBS+PBS) to stop staining, centrifuged at 350×g to remove the supernatant, washed twice and resuspended with staining buffer to a density of 2×10⁶ cells/mL. The cells were plated into a 96-well plate (50 μL of cell suspension per well) for further use. The antibodies were diluted from the highest concentration of 46 nM (two-fold concentration) with staining buffer by 3.3-fold serial dilution. The diluted antibodies were added to the well containing 50 μL of cell suspension. The plate was placed on a microplate shaker at 400 rpm for 1 minute to fully mix the antibodies and cells, and then incubated at 4° C. for 30 minutes. After the incubation, the cells were washed twice with staining buffer (200 μL per well) and centrifuged at 350×g for 5 minutes to discard the supernatant. The PE goat anti-human IgG Fc antibody (ebioscience, 12-4998-82) was diluted 250 times with staining buffer, added into the washed wells (100 μL per well), mixed well, and stained at 4° C. for 30 minutes. After staining, the cells were washed twice with staining buffer, finally resuspended with 200 μL staining buffer and analyzed by flow cytometry (BD, Canto II). The stronger the signal, the stronger the ability of the antibodies binds to PVRIG. An antibody binding curve was drawn with concentration of antibodies as the abscissa and the corresponding Mean Fluorescence Intensity (MFI) as the ordinate. The AUC value of the curve was calculated by using a Four Parameter Logistic Fit (GraphPadPrism9). The stronger the AUC value, the stronger the ability of the antibodies binds to FlpinCHO-PVRIG and FlpinCHO-cyno PVRIG. […] The binding activity of the antibodies was normalized to the positive control COM701-hIgG1 and SRF813-hIgG1.

[2] = molecular target: T2, cynomolgus monkey PVRIG (Novoprotein, …); assay: ELISA, antigen coated
Description: (§1) The ELISA plate was pre-coated with 100 μL/well of 0.5 μg/mL human PVRIG-his (AcroBiosystems, Cat NO. PVG-H52H4) or cynomolgus monkey PVRIG (Novoprotein, Cat NO. C09B). The tested anti-PVRIG humanized antibodies were serially diluted (initial concentration 3 nM, 3-fold serial dilution), added into the plate (100 μL/well) and incubated with shaking at room temperature for 1.5 hours. […] A HRP substrate, TMB (Thermo, Cat NO. 34029) was added into wells after washing the plate again for color development. After adding a termination solution to terminate the reaction, the absorbance value was read by a microplate reader (MD i3×). An antibody binding curve was drawn with concentration of antibodies as the abscissa and the corresponding OD value as the ordinate. The EC50 value was calculated by using a Four Parameter Logistic Fit (GraphPadPrism9). The smaller the EC50 value, the stronger the ability of the antibodies binds to human or cynomolgus monkey PVRIG. The binding effect of the humanized antibodies was normalized to the corresponding parental antibodies. If the percentage value is higher than 100%, the binding effect of humanized antibodies is better than that of parental antibody.

[3] = molecular target: T3, human PVRIG-his (AcroBiosystems, Cat …); assay: ELISA, antigen coated
Description: as §1

[4] = molecular target: T3, human PVRIG-his (AcroBiosystems, Cat …); assay: competition ELISA, PVRIG-His coated, competitor human PVRL2-mFc; set-up: AUC: unit not given here
Description: The ELISA plate was pre-coated with 100 μL/well of 0.5 μg/mL human PVRIG-his protein (AcroBiosystems, Cat NO. PVG-H52H4). The tested anti-PVRIG antibodies were diluted from the highest concentration of 16 nM (two-fold concentration). The diluted antibodies were mixed with 18 ng/ml human PVRL2-mFc (AcroBiosystems, Cat NO. CD2-H5257) in equal volume, added into the plate (100 μL/well), and incubated with shaking at room temperature for 2.0 hours. […] A HRP substrate, TMB (Thermo, Cat NO. 34029) was added into wells after washing the plate again for color development. After adding a termination solution to terminate the reaction, the absorbance value was read by a microplate reader (MD i3×). An inhibiting curve was drawn with concentration of antibodies as the abscissa and the corresponding OD value as the ordinate. The IC50 value was calculated by using a Four Parameter Logistic Fit (GraphPadPrism9). The smaller the IC50 value, the stronger the ability of the antibodies inhibits the binding between PVRIG and PVRL2. The positive and negative controls are the same as in Example 8.
The methods refer to Example 11. The inhibiting activity of the humanized antibodies was normalized to the corresponding parental antibodies. If the percentage value is higher than 100%, the inhibiting effect of humanized antibodies is better than that of parental antibodies.

| Binder | AUC % to COM701-hIgG1 [1] [%] | AUC % to SRF813-hIgG1 [1] [%] | AUC % to parental Ab [1] [%] | % relative activity parental antibody/tested antibody [2] [%] | EC50 [2] [pM] | % relative activity parental antibody/tested antibody [3] [%] | EC50 [3] [pM] | % relative activity (AUC) parental antibody/test antibody [4] [%] | % relative activity (IC50) parental antibody/test antibody [4] [%] | AUC [4] | IC50 [4] [pM] |
| --- | --- | --- | --- | --- | --- | --- | --- | --- | --- | --- | --- |
| B1 | 73.4 | 130 | 100 |  |  |  |  |  |  |  |  |
| B2 | 60.3 | 107 | 82.2 | 89.5 | 138 | 116 | 79.1 | 86.2 | 79.5 | 2.32 | 977 |
| B3 | 60.5 | 107 | 82.5 | 75.8 | 161 | 111 | 81.9 | 105 | 125 | 2 | 847 |
| B4 | 69.2 | 122 | 94.2 | 69.5 | 177 | 87.3 | 105 | 76.3 | 65.9 | 2.62 | 1180 |
| B5 | 61.9 | 110 | 84.4 | 68.3 | 180 | 140 | 65.5 | 86.4 | 85.3 | 2.32 | 911 |
| B6 | 70.4 | 125 | 96 | 66.4 | 186 | 92.4 | 99 | 82.5 | 73 | 2.43 | 1060 |
| B7 | 136 | 191 | 100 |  |  |  |  |  |  |  |  |
| B8 | 124 | 186 | 100 |  |  |  |  |  |  |  |  |
| B9 | 115 | 174 | 93.1 | 89.4 | 36.1 | 140 | 52.1 | 109 | 107 | 2.32 | 686 |
| B10 | 123 | 185 | 99.1 | 107 | 30.3 | 150 | 48.7 | 112 | 133 | 2.27 | 555 |
| B11 | 125 | 189 | 101 | 91.7 | 35.2 | 125 | 58.5 | 101 | 97.9 | 2.52 | 752 |
